A short description of data set [1]: Stability to degradation on incubation. Type of data set: physicochemical. Particulars: 72-hours incubation at ambient temperature or at 37° C., neutral pH.
In data set [2] the test system is guinea pig trachea. The data set is described as follows: Tracheal mucus velocity (TMV) in the guinea-pig. Particulars: 5 ug tracheal instillation; 1.5 to 2.5 hours following administration; FIG. 16(c). Type of data set: in vivo. The protocol: The aim of this study was to investigate the effect of the Kunitz family serine protease inhibitor Bikunin on guinea-pig tracheal mucus velocity 1.5 hours post treatment. This agent was delivered into the cephalad trachea by topical instillation. TMV was monitored 1.5 hours later for 60 mins. The procedure used in this Example is described in Newton et al. in “Cila, Mucus and Mucociliary Interactions,” Ed., Baum, G. L. et al., Marcel Dekker, New York, 1998; Newton et al., Ped. Pulm. S17, Abs. 364, 1998). […]
TMV was monitored using a lead collimated miniature Beta particle detector probe arranged to detect the radioactivity emitted from an injected aliquot of ^32P-labelled Saccharomyces cerevisiae as it was transported on the tracheal mucociliary layer of an anaesthetized guinea pig (Newton and Hall 1998) FIG. 16(a) illustrates the arrangement of the syringe and beta probe. FIG. 16(b) illustrates the counts detected by the probe as the ^32P-labelled S. cerevisiae is transported along the tracheal mucociliary layer. […]
The aim of this comparative study was to investigate the effect of hypertonic saline (14.4%×5 min) on guinea-pig tracheal mucus velocity. […] TMV was monitored immediately and every 15 minutes for 30 minutes. […]

The test system of data set [3] is human CF bronchial epithelial cells. Briefly: Short circuit current (Isc) in cultured human cystic fibrosis bronchial epithelial cells. The format is cell-based.
Protocol: HBE cells were isolated from CF patient lung transplant tissue and grown in collagen coated flasks for one week. The cells were then passaged and seeded onto collagen coated Costar Transwell filters (0.33 cm2) and grown in DMEM/F12 media supplemented with 2% Ultroser G. Cells were grown at an air liquid interface and used 2 to 4 weeks after seeding:
Cells on the Transwell filters were mounted in modified Costar Ussing chambers and studied under Isc conditions. […] Isc was recorded for 100 minutes and then the apical bath fluid was exchanged with fresh buffer. Trypsin (100 BAEE units/mL) was added to the apical side and Isc recorded for 10 minutes. Amiloride (10 uM) was then added to the apical side and Isc was recorded for a further 10 minutes.
HBE cells were isolated from CF patient lung transplant tissue and grown in collagen coated flasks for one week. The cells were then passaged and seeded onto collagen coated Costar Transwell filters (0.33 cm^2) and grown in DMEM/F12 media supplemented with 2% Ultroser G. Cells were grown at an air liquid interface and used 2 to 4 weeks after seeding.
Cells on the Transwell filters were mounted in modified Costar Ussing chambers and studied under Isc conditions. […] Isc was recorded for 90 minutes and then amiloride (10 uM) was added and Isc was recorded for a further 10 minutes. The apical bath fluid was then exchanged with fresh buffer, and Isc was recorded for a further 15 minutes. Trypsin (1 uM) was added to the apical side and Isc recorded for 15 minutes. Amiloride (10 uM) was then added to the apical side and Isc was recorded for a further 10 minutes.
The subject of data set [4] is sheep airways. The data set is described as follows: Tracheal mucus velocity in the sheep. Type of data set: in vivo. The protocol: The aim of this study was to investigate the effect of the Kunitz family serine protease inhibitor Bikunin (1-170) described in Example 17 on sheep trachcal mucus velocity over 8 hours after treatment. This agent was delivered by nebulised aerosol administration to the airways. The procedure used in this example is described in O'Riordan et al., J. Applied Physiol. 85(3), 1086-1091, 1998.
Adult ewes were restrained in an upright position, with their heads immobilized, in a specialized body harness. They were nasally intubated with an endotracheal tube, with the cuff placed just below the vocal cords. The inspired air was warmed and humidified. To minimize possible impairment of TMV caused by inflated cuffs, the endotracheal tube cuff remained deflated throughout the study except for the period of aerosol administration.
To measure TMV 5 to 10 radiopaque Teflon particles (approximately 1 mm in diameter, 0.8 mm thick, and weighing 1.5 to 2 mg) were insufflated into the trachea via a catheter placed within the endotracheal tube. The movement of the Teflon particles was then measured over a 1 minute period. The procedure used in this example is described in Russi et al., J. Applied Physiol. 59(5), 1416-1422, 1985. A collar containing radiopaque markers of known length was applied to the exterior of the animals and used as a standard to convert distance traversed by the particles on the video screen to actual distance traveled. TMV was calculated from the average distance in a cephalad direction traveled per minute for 5 to 10 Teflon particles. Baseline TMV was measured immediately prior to administration of aerosol.
Test substances; PBS, 1 mg/mL Bikunin in PBS, or 3 mg/mL Bikunin in PBS; were delivered to the sheep airways as an aerosol (3 mL) generated using a Raindrop jet nebuliser operated at a flow rate that produced droplets of mass median aerodynamic diameter of 3.6 um. […]

Entries after “also recorded” stand apart in the source; their conditions may differ.

B1: CHO Bikunin (1-170): Glycosylated placental bikunin (1-170), SEQ ID NO: 52, expressed in Chinese hamster ovary cells (Example 17) (protein, listed as Homo sapiens)
chain: ADRERSIHDFCLVSKVVGRCRASMPRWWYNVTDGSCQLFVYGGCDGNSNNYLTKEECLKKCATVTENATGDLATSRNAADSSVPSAPRRQDSEDHSSDMFNYEEYCTANAVTGPCRASFPRWYFDVERNSCNNFIYGGCRGNKNSYRSEEACMLRCFRQQENPPLPLGSK
modifications: glycosylated, CHO-expressed
As for B1, in data set [1], the stability to degradation result was “stable to degradation”. For the same molecule, the TMV result was “increased TMV; also recorded: sustained increase in TMV” in data set [2]; “no significant differences” in data set [4] (3 mg aerosol (3 mL of 1 mg/mL), any time point versus vehicle); “significantly increased TMV” in data set [4] (9 mg aerosol (3 mL of 3 mg/mL), at 0, 0.5, 3, 4, 5, 6, 7, and 8 hours versus PBS vehicle, FIG. 22); “returned to baseline rates” in data set [4] (9 mg aerosol, at 24 hours). Moreover, the Isc entry in data set [3] (1 ug/mL) is “inhibited”; in data set [3] (10 ug/mL in PBS, over a 90 minute period, FIG. 28(a)), “inhibited Isc”; in data set [3] (10 ug/mL in PBS, over a 90 minute period, FIG. 28(a), listed as CHO expressed Bikunin (1-170)) it was “decreases sodium current”; in data set [3] (1, 5, and 10 ug/mL, at 90 minutes after apical application, FIG. 28(b)), “decreases sodium current”; in data set [3] (1, 5, and 10 ug/mL, at 90 minutes after apical application, FIG. 28(b), listed as bikunin (1-170)), “inhibited Isc”.

(Values after patent publication US20070086956A1, “Method for accelerating the rate of mucociliary clearance” (BAYER AKTIENGESELLSCHAFT, priority 1998, published 2007).)
